Measurements reported in publication doi:10.1101/317909.

Target: T1, ZC3H12B PIN-ZnF fragment (human, UniProt Q5HYM0 179-397)
T1 sequence: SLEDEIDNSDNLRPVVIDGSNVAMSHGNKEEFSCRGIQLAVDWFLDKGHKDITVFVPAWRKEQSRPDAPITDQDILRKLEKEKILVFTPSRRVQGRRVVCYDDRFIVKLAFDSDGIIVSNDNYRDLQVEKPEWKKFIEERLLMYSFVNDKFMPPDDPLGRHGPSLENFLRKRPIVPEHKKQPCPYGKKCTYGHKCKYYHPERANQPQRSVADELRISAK
Experiment: X-ray crystallography

Q: Does AAUGCGACAGUCGGUAGCAUC (ssRNA, phosphorothioate bond between nt 1 and 2 (5' end)) [21-nt HTR-SELEX-enriched RNA] bind?
A: Result: binds
